Test results taken from patent publication US20260242735A1 (UNIVERSIT T BASEL, published 2026).

Key:
[1] = target: human CD33 R111A (human, UniProt P20138 18-364); test: alanine scan, flow cytometry, HEK293-T;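 further: antibody binding to each alanine-substituted CD33 mutant expressed transiently in HEK293-T, read as fluorescence minus background, mean of duplicates, relative to wild-type CD33 set as 100%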
[2] = target: human CD33 F61A (human, UniProt P20138 18-364); test: alanine scan, flow cytometry, HEK293-T;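 further: antibody binding to each alanine-substituted CD33 mutant expressed transiently in HEK293-T, read as fluorescence minus background, mean of duplicates, relative to wild-type CD33 set as 100%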
[3] = target: human CD33 T86A (human, UniProt P20138 18-364); test: alanine scan, flow cytometry, HEK293-T;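 further: antibody binding to each alanine-substituted CD33 mutant expressed transiently in HEK293-T, read as fluorescence minus background, mean of duplicates, relative to wild-type CD33 set as 100%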
human CD33 T86A, sequence (P20138 18-364 T86A limits assumed): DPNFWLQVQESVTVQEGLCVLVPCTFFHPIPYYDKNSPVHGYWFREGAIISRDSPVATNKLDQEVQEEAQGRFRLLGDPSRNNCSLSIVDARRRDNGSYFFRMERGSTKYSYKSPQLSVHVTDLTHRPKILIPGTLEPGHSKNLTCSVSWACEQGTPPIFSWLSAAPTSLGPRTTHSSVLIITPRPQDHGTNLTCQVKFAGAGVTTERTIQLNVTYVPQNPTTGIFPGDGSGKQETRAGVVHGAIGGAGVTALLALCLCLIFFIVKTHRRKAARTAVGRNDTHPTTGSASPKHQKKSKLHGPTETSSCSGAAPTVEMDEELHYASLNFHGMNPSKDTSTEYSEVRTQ

[4] = target: human CD33 M120V (human, UniProt P20138 18-364); test: flow cytometry, transfected cells, IgG;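 further: CD33 point mutants transiently expressed in HEK293-T cells, antibody binding read by fluorescence, background subtracted and normalized to wild-type CD33 as 100%, duplicates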
Experimental: (§1) An alanine scan on human CD33 was performed to the determine the residues on CD33 that are involved in binding to the antibodies investigated. […] Briefly, a mutation library of CD33 was created by high-throughput, site-directed mutagenesis. Each residue was individually mutated to alanine, with alanine codons mutated to serine. The mutant library was arrayed in 384-well microplates and transiently transfected into HEK293-T. Following transfection, cells were incubated with the indicated antibodies (IgG or Fab) at concentrations pre-determined using an independent immunofluorescence titration curve on wild type CD33. […] Binding of each antibody to each mutant clone was determined in duplicates. For each point, background fluorescence was subtracted from the raw data, which were then normalized to antibody reactivity with wild type CD33.
(§2) Antibodies were screened for binding to the human CD33 variants in IgG format. […] For each mutation, background fluorescence was subtracted from the raw data, which were then normalized to antibody reactivity with wild-type CD33.

[5] = target: human CD33 S131G (human, UniProt P20138 18-364); test: flow cytometry, transfected cells, IgG;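 further: CD33 point mutants transiently expressed in HEK293-T cells, antibody binding read by fluorescence, background subtracted and normalized to wild-type CD33 as 100%, duplicates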
human CD33 S131G, sequence (P20138 18-364 S131G limits assumed): as the sequence (P20138 18-364 T86A limits assumed) above, with A69T, S114G counted along it
Experimental: as §1, §2

[6] = target: human CD33 K52I (human, UniProt P20138 18-364); test: flow cytometry, transfected cells, IgG;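 further: CD33 point mutants transiently expressed in HEK293-T cells, antibody binding read by fluorescence, background subtracted and normalized to wild-type CD33 as 100%, duplicates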
human CD33 K52I, sequence (P20138 18-364 K52I limits assumed): as the sequence (P20138 18-364 T86A limits assumed) above, with K35I, A69T counted along it
Experimental: as §1, §2

[7] = target: human CD33 S131D (human, UniProt P20138 18-364); test: flow cytometry, transfected cells, IgG;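 further: CD33 point mutants transiently expressed in HEK293-T cells, antibody binding read by fluorescence, background subtracted and normalized to wild-type CD33 as 100%, duplicates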
Experimental: as §1, §2

[8] = target: human CD33 S131Y (human, UniProt P20138 18-364); test: flow cytometry, transfected cells, IgG
human CD33 S131Y, sequence (P20138 18-364 S131Y limits assumed): as the sequence (P20138 18-364 T86A limits assumed) above, with A69T, S114Y counted along it
Experimental: as §1, §2

[9] = target: human CD33 S131K (human, UniProt P20138 18-364); test: flow cytometry, transfected cells, IgG
Experimental: as §1, §2

[10] = target: human CD33 D51K (human, UniProt P20138 18-364); test: flow cytometry, transfected cells, IgG
Experimental: as §1, §2

[11] = target: human CD33 S131I (human, UniProt P20138 18-364); test: flow cytometry, transfected cells, IgG
Experimental: as §1, §2

[12] = target: human CD33 L134I (human, UniProt P20138 18-364); test: flow cytometry, transfected cells, IgG
Experimental: as §1, §2

[13] = target: human CD33 P132L (human, UniProt P20138 18-364); test: flow cytometry, transfected cells, IgG
human CD33 P132L, sequence (P20138 18-364 P132L limits assumed): as the sequence (P20138 18-364 T86A limits assumed) above, with A69T, P115L counted along it
Experimental: as §1, §2

[14] = target: human CD33 R122T (human, UniProt P20138 18-364); test: flow cytometry, transfected cells, IgG
human CD33 R122T, sequence (P20138 18-364 R122T limits assumed): as the sequence (P20138 18-364 T86A limits assumed) above, with A69T, R105T counted along it
Experimental: as §1, §2

[15] = target: human CD33 L134M (human, UniProt P20138 18-364); test: flow cytometry, transfected cells, IgG
Experimental: as §1, §2

[16] = target: human CD33 P132S (human, UniProt P20138 18-364); test: flow cytometry, transfected cells, IgG
human CD33 P132S, sequence (P20138 18-364 P132S limits assumed): as the sequence (P20138 18-364 T86A limits assumed) above, with A69T, P115S counted along it
Experimental: as §1, §2

[17] = target: human CD33 L134Q (human, UniProt P20138 18-364); test: flow cytometry, transfected cells, IgG
Experimental: as §1, §2

[18] = target: human CD33 V56R (human, UniProt P20138 18-364); test: flow cytometry, transfected cells, IgG
Experimental: as §1, §2

[19] = target: human CD33 P132T (human, UniProt P20138 18-364); test: flow cytometry, transfected cells, IgG
Experimental: as §1, §2

[20] = target: human CD33 S131M (human, UniProt P20138 18-364); test: flow cytometry, transfected cells, IgG
Experimental: as §1, §2

[21] = target: human CD33 P132D (human, UniProt P20138 18-364); test: flow cytometry, transfected cells, IgG
Experimental: as §1, §2

[22] = target: human CD33 D51N (human, UniProt P20138 18-364); test: flow cytometry, transfected cells, IgG
Experimental: as §1, §2

[23] = target: human CD33 S131F (human, UniProt P20138 18-364); test: flow cytometry, transfected cells, IgG
Experimental: as §1, §2

[24] = target: human CD33 R122G (human, UniProt P20138 18-364); test: flow cytometry, transfected cells, IgG
Experimental: as §1, §2

[25] = target: human CD33 P132V (human, UniProt P20138 18-364); test: flow cytometry, transfected cells, IgG
human CD33 P132V, sequence (P20138 18-364 P132V limits assumed): as the sequence (P20138 18-364 T86A limits assumed) above, with A69T, P115V counted along it
Experimental: as §1, §2

[26] = target: human CD33 S131T (human, UniProt P20138 18-364); test: flow cytometry, transfected cells, IgG
Experimental: as §1, §2

[27] = target: human CD33 K52Y (human, UniProt P20138 18-364); test: flow cytometry, transfected cells, IgG
Experimental: as §1, §2

[28] = target: human CD33 L134T (human, UniProt P20138 18-364); test: flow cytometry, transfected cells, IgG
human CD33 L134T, sequence (P20138 18-364 L134T limits assumed): as the sequence (P20138 18-364 T86A limits assumed) above, with A69T, L117T counted along it
Experimental: as §1, §2

[29] = target: human CD33 K52L (human, UniProt P20138 18-364); test: flow cytometry, transfected cells, IgG
Experimental: as §1, §2

[30] = target: human CD33 K52D (human, UniProt P20138 18-364); test: flow cytometry, transfected cells, IgG
Experimental: as §1, §2

[31] = target: human CD33 S131Q (human, UniProt P20138 18-364); test: flow cytometry, transfected cells, IgG
Experimental: as §1, §2

[32] = target: human CD33 S131W (human, UniProt P20138 18-364); test: flow cytometry, transfected cells, IgG
human CD33 S131W, sequence (P20138 18-364 S131W limits assumed): as the sequence (P20138 18-364 T86A limits assumed) above, with A69T, S114W counted along it
Experimental: as §1, §2

[33] = target: human CD33 P132K (human, UniProt P20138 18-364); test: flow cytometry, transfected cells, IgG
Experimental: as §1, §2

[34] = target: human CD33 S131N (human, UniProt P20138 18-364); test: flow cytometry, transfected cells, IgG
human CD33 S131N, sequence (P20138 18-364 S131N limits assumed): as the sequence (P20138 18-364 T86A limits assumed) above, with A69T, S114N counted along it
Experimental: as §1, §2

[35] = target: human CD33 R122S (human, UniProt P20138 18-364); test: flow cytometry, transfected cells, IgG
human CD33 R122S, sequence (P20138 18-364 R122S limits assumed): as the sequence (P20138 18-364 T86A limits assumed) above, with A69T, R105S counted along it
Experimental: as §1, §2

[36] = target: human CD33 R122F (human, UniProt P20138 18-364); test: flow cytometry, transfected cells, IgG
Experimental: as §1, §2

[37] = target: human CD33 Y129S (human, UniProt P20138 18-364); test: flow cytometry, transfected cells, IgG
human CD33 Y129S, sequence (P20138 18-364 Y129S limits assumed): as the sequence (P20138 18-364 T86A limits assumed) above, with A69T, Y112S counted along it
Experimental: as §1, §2

[38] = target: human CD33 Y127R (human, UniProt P20138 18-364); test: flow cytometry, transfected cells, IgG
Experimental: as §1, §2

human CD33 R111A, sequence (P20138 18-364 R111A limits assumed): as the sequence (P20138 18-364 T86A limits assumed) above, with A69T, R94A counted along it

| Mean % WT Binding [1] [% WT binding] | Mean % WT Binding [2] [% WT binding] | Mean % WT Binding [3] [% WT binding] | Mean % WT Binding [4] [%] | Mean % WT Binding [5] [%] | Mean % WT Binding [6] [%] | Mean % WT Binding [7] [%] | Mean % WT Binding [8] [%] | Mean % WT Binding [9] [%] | Mean % WT Binding [10] [%] | Mean % WT Binding [11] [%] | Mean % WT Binding [12] [%] | Mean % WT Binding [13] [%] | Mean % WT Binding [14] [%] | Mean % WT Binding [15] [%] | Mean % WT Binding [16] [%] | Mean % WT Binding [17] [%] | Mean % WT Binding [18] [%] | Mean % WT Binding [19] [%] | Mean % WT Binding [20] [%] | Binder | further results |
| --- | --- | --- | --- | --- | --- | --- | --- | --- | --- | --- | --- | --- | --- | --- | --- | --- | --- | --- | --- | --- | --- |
| 102 | 111 | 80.1 | – | – | – | – | – | – | – | – | – | – | – | – | – | – | – | – | – | Refmab #6 (antibody, V domains shown, Full-length format is human IgG1 Fc silent (PG-LALA); also made as Fab; The alanine scan used IgG or Fab) VH: QVQLQQPGAEVVKPGASVKMSCKASGYTFTSYYIHWIKQTPGQGLEWVGVIYPGNDDISYNQKFQGKATLTADKSSTTAYMQLSSLTSEDSAVYYCAREVRLRYFDVWGQGTTVTVSS VL: EIVLTQSPGSLAVSPGERVTMSCKSSQSVFFSSSQKNYLAWYQQIPGQSPRLLIYWASTRESGVPDRFTGSGSGTDFTLTISSVQPEDLAIYYCHQYLSSRTFGQGTKLEIK | – |
| – | – | – | 97 | 101 | 71.6 | 88.9 | 24.5 | 2.5 | 77.7 | 24 | 89.4 | 6.1 | 114 | 99.5 | 3.2 | 47.1 | 93.2 | 11.7 | 4.3 | Refmab #6 (antibody, human IgG1, V domains shown) VH: QVQLQQPGAEVVKPGASVKMSCKASGYTFTSYYIHWIKQTPGQGLEWVGVIYPGNDDISYNQKFQGKATLTADKSSTTAYMQLSSLTSEDSAVYYCAREVRLRYFDVWGQGTTVTVSS VL: EIVLTQSPGSLAVSPGERVTMSCKSSQSVFFSSSQKNYLAWYQQIPGQSPRLLIYWASTRESGVPDRFTGSGSGTDFTLTISSVQPEDLAIYYCHQYLSSRTFGQGTKLEIK | Mean % WT Binding [21]: 87.6%; Mean % WT Binding [22]: 92.6%; Mean % WT Binding [23]: 2.4%; Mean % WT Binding [24]: 112%; Mean % WT Binding [25]: 84.6%; Mean % WT Binding [26]: 99.5%; Mean % WT Binding [27]: 26.3%; Mean % WT Binding [28]: 88.4%; Mean % WT Binding [29]: 99.4%; Mean % WT Binding [30]: 126%; Mean % WT Binding [31]: 18.9%; Mean % WT Binding [32]: 1.1%; Mean % WT Binding [33]: 2.2%; Mean % WT Binding [34]: 84.6%; Mean % WT Binding [35]: 108%; Mean % WT Binding [36]: 92.5%; Mean % WT Binding [37]: 99.6%; Mean % WT Binding [38]: 108% |

The remaining lines, values behind:

| Binder | Mean % WT Binding [1] [% WT binding] | Mean % WT Binding [2] [% WT binding] | Mean % WT Binding [3] [% WT binding] | Mean % WT Binding [4] [%] | Mean % WT Binding [5] [%] | Mean % WT Binding [6] [%] | Mean % WT Binding [7] [%] | Mean % WT Binding [8] [%] | Mean % WT Binding [9] [%] | Mean % WT Binding [10] [%] | Mean % WT Binding [11] [%] | Mean % WT Binding [12] [%] | Mean % WT Binding [13] [%] | Mean % WT Binding [14] [%] | Mean % WT Binding [15] [%] | Mean % WT Binding [16] [%] | Mean % WT Binding [17] [%] | Mean % WT Binding [18] [%] | Mean % WT Binding [19] [%] | Mean % WT Binding [20] [%] | further results |
| --- | --- | --- | --- | --- | --- | --- | --- | --- | --- | --- | --- | --- | --- | --- | --- | --- | --- | --- | --- | --- | --- |
| Refmab #5 (antibody, V domains shown, Full-length format is human IgG1 Fc silent (PG-LALA); also made as Fab; The alanine scan used IgG or Fab) VH: QVQLVQSGAEVKKPGASVKVSCKASGYTFTNYDINWVRQAPGQGLEWIGWIYPGDGSTKYNEKFKAKATLTADTSTSTAYMELRSLRSDDTAVYYCASGYEDAMDYWGQGTTVTVSS VL: DIQMTQSPSSLSASVGDRVTINCKASQDINSYLSWFQQKPGKAPKTLIYRANRLVDGVPSRFSGSGSGQDYTLTISSLQPEDFATYYCLQYDEFPLTFGGGTKVEIK | 118 | 161 | 124 | – | – | – | – | – | – | – | – | – | – | – | – | – | – | – | – | – | – |
| Refmab #5 (antibody, human IgG1, V domains shown) VH: QVQLVQSGAEVKKPGASVKVSCKASGYTFTNYDINWVRQAPGQGLEWIGWIYPGDGSTKYNEKFKAKATLTADTSTSTAYMELRSLRSDDTAVYYCASGYEDAMDYWGQGTTVTVSS VL: DIQMTQSPSSLSASVGDRVTINCKASQDINSYLSWFQQKPGKAPKTLIYRANRLVDGVPSRFSGSGSGQDYTLTISSLQPEDFATYYCLQYDEFPLTFGGGTKVEIK | – | – | – | 85.9 | 97.1 | 1.9 | 102 | 89.5 | 96.4 | 4.2 | 84.8 | 92.9 | 89.6 | 83.2 | 86.1 | 105 | 62.2 | 87.4 | 93.1 | 83.8 | Mean % WT Binding [21]: 90.5%; Mean % WT Binding [22]: 89.4%; Mean % WT Binding [23]: 82.3%; Mean % WT Binding [24]: 94.9%; Mean % WT Binding [25]: 86.9%; Mean % WT Binding [26]: 89%; Mean % WT Binding [27]: 2%; Mean % WT Binding [28]: 96.5%; Mean % WT Binding [29]: 2.2%; Mean % WT Binding [30]: 3.2%; Mean % WT Binding [31]: 80.6%; Mean % WT Binding [32]: 94.5%; Mean % WT Binding [33]: 97.1%; Mean % WT Binding [34]: 101%; Mean % WT Binding [35]: 90.6%; Mean % WT Binding [36]: 90.1%; Mean % WT Binding [37]: 94.7%; Mean % WT Binding [38]: 108% |
